In EP4628095A1 (Xiamen University, dated 2025):

Tests used:
[1] = biological target: T1, P2-3D-RBD (insect cell expression system); assay: SPR (Biacore 8K), HEV-p239 coupled to CM5 chip (Fig. 10A)
T1 construct: also called VHH-RBD

[2] = biological target: T2, P2-3A-RBD (insect cell expression system); assay: as above
T2 construct: also called VHH-RBD

[3] = biological target: T3, P2-3E-RBD (insect cell expression system); assay: as above
T3 construct: also called VHH-RBD

[4] = biological target: T4, P1-5B-RBD (insect cell expression system); assay: as above
T4 construct: also called VHH-RBD; P1-5B-RBD fusion protein

[5] = biological target: T5, P2-5C-RBD (mammalian cell expression system); assay: SPR (Biacore 8K), HEV-p239 coupled to CM5 chip (Fig. 10B)
T5 construct: also called VHH-RBD

[6] = biological target: T6, P2-2C-RBD (mammalian cell expression system); assay: as above
T6 construct: also called VHH-RBD

[7] = biological target: T7, P1-5B-RBD (mammalian cell expression system); assay: as above
T7 construct: also called VHH-RBD

[8] = biological target: T8, P2-3A-RBD (mammalian cell expression system); assay: as above
T8 construct: also called VHH-RBD

[9] = biological target: T9, P2-3E-RBD (mammalian cell expression system); assay: as above
T9 construct: also called VHH-RBD

Measured: binding result

B1: HEV-p239 protein (other)
chain: IALTLFNLADTLLGGLPTELISSAGGQLFYSRPVVSANGEPTVKLYTSVENAQQDKGIAIPHDIDLGESRVVIQDYDNQHEQDRPTPSPAPSRPFSVLRANDVLWLSLTAAEYDQSTYGSSTGPVYVSDSVTLVNVATGAQAVARSLDWTKVTLDGRPLSTIQQYSKTFFVLPLRGKLSFWEAGTTKAGYPYNYNTTASDQLLVENAAGHRVAISTYTTSLGAGPVSISAVAVLAPHSV
notes: also called HEV-p239 particles; HEV particles
binds: [1] | [2] | [3] | [4] | [5] | [6] | [7] | [8] | [9]
